# In publication doi:10.1101/2020.05.29.124305 (bioRxiv, 2020):
# Target: the molecule itself
# Experiment: cryo-EM structure
protein,measurement,value
"Human ASCT2 (Alanine-Serine-Cysteine Transporter 2, SLC1A5) (natural protein) MVADPPRDSKGLAAAEPTANGGLALASIEDQGAAAGGYCGSRDQVRRCLRANLLVLLTVVAVVAGVALGLGVSGAGGALALGPERLSAFVFPGELLLRLLRMIILPLVVCSLIGGAASLDPGALGRLGAWALLFFLVTTLLASALGVGLALALQPGAASAAINASVGAAGSAENAPSKEVLDSFLDLARNIFPSNLVSAAFRSYSTTYEERNITGTRVKVPVGQEVEGMNILGLVVFAIVFGVALRKLGPEGELLIRFFNSFNEATMVLVSWIMWYAPVGIMFLVAGKIVEMEDVGLLFARLGKYILCCLLGHAIHGLLVLPLIYFLFTRKNPYRFLWGIVTPLATAFGTSSSSATLPLMMKCVEENNGVAKHISRFILPIGATVNMDGAALFQCVAAVFIAQLSQQSLDFVKIITILVTATASSVGAAGIPAGGVLTLAIILEAVNLPVDHISLILAVDWLVDRSCTVLNVEGDALGAGLLQNYVDRTESRSTEPELIQVKSELPLDPLPVPTEEGNPLLKHYRGPAGDATVASEKESVM",stoichiometry N,3
